PMC9482650, “Quantitative fragmentomics allow affinity mapping of interactomes” (Nature Communications, 2022)

Experiments:
Assay in all cases: holdup assay
Design in all cases: key: below the threshold = too weak to quantify, mostly under pKd 3.1 to 4
Conditions in all cases: plain residues with an end cap or a label only (N-terminal biotin on a linker: ttds)
Q96JY6 = target: Q96JY6
PDZRN4_2, Q6ZMN7 = target: PDZRN4_2, Q6ZMN7
Q12923 = target: Q12923
GRIP1_1, Q9Y3R0 = target: T1, GRIP1_1, Q9Y3R0
T1 sequence (Q9Y3R0 48-146, limits assumed, looked up): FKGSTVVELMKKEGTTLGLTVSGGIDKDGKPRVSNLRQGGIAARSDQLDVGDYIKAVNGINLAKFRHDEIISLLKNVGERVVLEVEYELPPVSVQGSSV

MPP1, Q00013 = target: T2, MPP1, Q00013
T2 sequence (Q00013 66-162, limits assumed, looked up): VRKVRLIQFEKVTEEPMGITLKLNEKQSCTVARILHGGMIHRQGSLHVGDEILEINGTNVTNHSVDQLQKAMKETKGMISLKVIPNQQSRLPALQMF

SNTB2, Q13425 = target: T3, SNTB2, Q13425
T3 sequence (Q13425 110-208, limits assumed, looked up): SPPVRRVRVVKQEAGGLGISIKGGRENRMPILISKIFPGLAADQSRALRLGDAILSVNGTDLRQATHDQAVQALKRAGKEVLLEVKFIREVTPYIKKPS

PARD6B, Q9BYG5 = target: T4, PARD6B, Q9BYG5
T4 sequence (Q9BYG5 152-260, limits assumed, looked up): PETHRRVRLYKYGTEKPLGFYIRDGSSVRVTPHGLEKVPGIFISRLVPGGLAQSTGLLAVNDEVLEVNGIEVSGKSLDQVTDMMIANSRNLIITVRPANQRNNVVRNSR

PDZD2_1, O15018 = target: T5, PDZD2_1, O15018
T5 sequence (O15018 80-192, limits assumed, looked up): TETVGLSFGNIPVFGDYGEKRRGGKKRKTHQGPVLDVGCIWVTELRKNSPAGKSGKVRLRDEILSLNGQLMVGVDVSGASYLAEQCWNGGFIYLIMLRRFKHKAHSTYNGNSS

MPDZ_2, O75970 = target: T6, MPDZ_2, O75970
T6 sequence (O75970 252-347, limits assumed, looked up): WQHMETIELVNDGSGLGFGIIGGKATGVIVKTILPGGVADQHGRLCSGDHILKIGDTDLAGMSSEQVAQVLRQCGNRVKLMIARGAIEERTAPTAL

SHROOM2, Q13796 = target: T7, SHROOM2, Q13796
T7 sequence (Q13796 21-118, limits assumed, looked up): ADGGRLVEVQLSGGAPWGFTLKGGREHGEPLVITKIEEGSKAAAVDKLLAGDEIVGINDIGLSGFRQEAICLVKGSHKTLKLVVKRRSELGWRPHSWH

CNKSR1, Q969H4 = target: T8, CNKSR1, Q969H4
T8 sequence (Q969H4 191-295, limits assumed, looked up): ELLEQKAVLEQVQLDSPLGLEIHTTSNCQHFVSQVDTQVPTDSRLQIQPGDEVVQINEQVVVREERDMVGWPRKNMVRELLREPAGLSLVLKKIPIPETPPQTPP

MAGI2_1, Q86UL8 = target: T9, MAGI2_1, Q86UL8
T9 sequence (Q86UL8 12-111, limits assumed, looked up): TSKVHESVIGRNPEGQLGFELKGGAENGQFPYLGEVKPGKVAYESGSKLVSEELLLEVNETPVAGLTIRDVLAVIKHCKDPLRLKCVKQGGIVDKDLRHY

Q13009 = target: Q13009
MAGI3_5, Q5TCQ9 = target: MAGI3_5, Q5TCQ9
GIPC3, Q8TF64 = target: GIPC3, Q8TF64
DVL2, O14641 = target: DVL2, O14641
DLG5_2, Q8TDM6 = target: DLG5_2, Q8TDM6
USH1C_3, Q9Y6N9 = target: T10, USH1C_3, Q9Y6N9
T10 sequence (Q9Y6N9 447-547, limits assumed, looked up): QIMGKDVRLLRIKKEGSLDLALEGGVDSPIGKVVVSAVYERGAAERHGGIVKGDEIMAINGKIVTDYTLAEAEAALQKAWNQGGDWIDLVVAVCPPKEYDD

Q9Y3R0 = target: Q9Y3R0
Q9NPB6 = target: Q9NPB6
MPDZ_7, O75970 = target: T11, MPDZ_7, O75970
T11 sequence (O75970 1146-1253, limits assumed, looked up): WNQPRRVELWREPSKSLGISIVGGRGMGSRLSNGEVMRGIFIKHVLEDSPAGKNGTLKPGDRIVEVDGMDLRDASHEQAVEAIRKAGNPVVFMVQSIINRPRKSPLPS

MPDZ_13, O75970 = target: T12, MPDZ_13, O75970
T12 sequence (O75970 1982-2070, limits assumed, looked up): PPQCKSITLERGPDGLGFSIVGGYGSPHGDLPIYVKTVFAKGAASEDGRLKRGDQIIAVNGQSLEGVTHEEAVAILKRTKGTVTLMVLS

Q9UDY2 = target: Q9UDY2
RGS12, O14924 = target: T13, RGS12, O14924
T13 sequence (O14924 17-108, limits assumed, looked up): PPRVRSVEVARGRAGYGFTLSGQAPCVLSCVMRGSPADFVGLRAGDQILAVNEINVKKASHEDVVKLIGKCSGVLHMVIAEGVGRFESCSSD

Q9UMS6 = target: Q9UMS6

Measured: pKd

Chain of GIPC3, Q8TF64 (Q8TF64 107-202): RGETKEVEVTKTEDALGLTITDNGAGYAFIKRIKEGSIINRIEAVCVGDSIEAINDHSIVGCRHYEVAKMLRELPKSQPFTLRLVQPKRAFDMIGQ
Chain of DLG5_2, Q8TDM6 (Q8TDM6 714-800): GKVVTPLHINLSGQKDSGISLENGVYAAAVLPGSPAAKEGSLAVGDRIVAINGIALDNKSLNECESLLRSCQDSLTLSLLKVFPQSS
Chain of PDZRN4_2, Q6ZMN7 (Q6ZMN7 389-498): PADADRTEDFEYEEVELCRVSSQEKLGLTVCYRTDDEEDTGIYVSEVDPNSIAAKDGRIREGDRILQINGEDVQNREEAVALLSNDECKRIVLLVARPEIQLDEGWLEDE
Chain of MAGI3_5, Q5TCQ9 (Q5TCQ9 847-941): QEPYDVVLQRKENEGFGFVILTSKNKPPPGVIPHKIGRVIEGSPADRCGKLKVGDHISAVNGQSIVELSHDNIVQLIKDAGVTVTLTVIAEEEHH
Chain of DVL2, O14641 (O14641 260-359): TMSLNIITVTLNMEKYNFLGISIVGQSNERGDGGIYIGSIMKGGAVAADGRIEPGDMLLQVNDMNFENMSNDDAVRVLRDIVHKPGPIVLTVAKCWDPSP

PSRDRKETSI [RALBP1, Q15311]
4.01: MPP1, Q00013
3.94: SNTB2, Q13425
4.26: DLG5_2, Q8TDM6
3.74: MAGI2_1, Q86UL8
below the threshold: all other assays above

KLVIKTETTV [RASSF6, Q6ZTQ3]
5.13: MPP1, Q00013
4.2: SNTB2, Q13425
4.33: DLG5_2, Q8TDM6
below the threshold: all other assays above
